Laboratory results published in PMC9597168, “ATP-dependent polymerization dynamics of bacterial actin proteins involved in Spiroplasma swimming” (Open Biology, 2022).
Changes are numbered by the printed parent chain. Numbers in names are those of the source.

Key:
[1] = molecular target: T1, SpeMreB5 (Spiroplasma eriocheiris, UniProt A0A0H3XIQ3); experiment: Pi release assay (MESG coupled, A360); type: biochemical; conditions: 2 mM ATP, 2 mM MgCl2, pH 7.5, 100 mM KCl, about 25 °C
T1 construct: gene mreB5; full length, 6xHis fusion, E. coli expressed, purified as monomer
T1 sequence (A0A0H3XIQ3 1-350): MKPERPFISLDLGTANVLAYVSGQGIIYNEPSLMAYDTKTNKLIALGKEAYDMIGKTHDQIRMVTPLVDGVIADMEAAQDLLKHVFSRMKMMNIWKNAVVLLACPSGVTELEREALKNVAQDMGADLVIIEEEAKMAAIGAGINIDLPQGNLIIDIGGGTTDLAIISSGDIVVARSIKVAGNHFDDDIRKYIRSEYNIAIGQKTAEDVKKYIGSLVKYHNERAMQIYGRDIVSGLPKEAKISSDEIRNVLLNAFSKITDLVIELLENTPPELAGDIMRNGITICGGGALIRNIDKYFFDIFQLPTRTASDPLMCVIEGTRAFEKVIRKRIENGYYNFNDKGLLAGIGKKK

[2] = molecular target: SpeMreB5 D162S (Spiroplasma eriocheiris); experiment: sedimentation assay (ultracentrifugation of polymers, SDS-PAGE of pellet and supernatant); buffer S (20 mM Tris-HCl pH 8.0, 1 M NaCl, 200 mM L-arginine-HCl pH 8.0, 5 mM DTT, 2 mM MgCl2, 2 mM ATP), 1 h, 436 000 x g for 120 min at 23°C; bulk critical concentration = x-intercept of the linear fit of pellet against total concentration
[3] = molecular target: SpeMreB5 T160A (Spiroplasma eriocheiris); experiment: as above
[4] = molecular target: SpeMreB5 T160K (Spiroplasma eriocheiris); experiment: as above
[5] = molecular target: Spiroplasma eriocheiris MreB3 wild-type (Spiroplasma eriocheiris); experiment: as above
[6] = molecular target: Spiroplasma eriocheiris MreB5 wild-type (Spiroplasma eriocheiris); experiment: sedimentation assay (ultracentrifugation of polymers, SDS-PAGE of pellet and supernatant); buffer S with Mg-ADP instead of Mg-ATP; bulk critical concentration = x-intercept of the linear fit
[7] = molecular target: Spiroplasma eriocheiris MreB5 wild-type (Spiroplasma eriocheiris); experiment: sedimentation assay (ultracentrifugation of polymers, SDS-PAGE of pellet and supernatant); buffer S with Mg-AMPPNP instead of Mg-ATP; bulk critical concentration = x-intercept of the linear fit
[8] = molecular target: Spiroplasma eriocheiris MreB5 wild-type (Spiroplasma eriocheiris); experiment: sedimentation assay (ultracentrifugation of polymers, SDS-PAGE of pellet and supernatant); buffer S (20 mM Tris-HCl pH 8.0, 1 M NaCl, 200 mM L-arginine-HCl pH 8.0, 5 mM DTT, 2 mM MgCl2, 2 mM ATP), 1 h, 436 000 x g for 120 min at 23°C; bulk critical concentration = x-intercept of the linear fit of pellet against total concentration
[9] = molecular target: the molecule itself; experiment: negative-staining electron microscopy; polymerized 3 h at room temperature in standard buffer (20 mM Tris-HCl pH 7.5, 100 mM KCl, 5 mM DTT) with 2 mM MgCl2 and 2 mM ATP; 10 µM SpeMreB3, 5 µM SpeMreB5, diluted to 3 µM before the grid
[10] = molecular target: the molecule itself; experiment: sedimentation assay (ultracentrifugation of polymers, SDS-PAGE of pellet and supernatant); buffer S (20 mM Tris-HCl pH 8.0, 1 M NaCl, 200 mM L-arginine-HCl pH 8.0, 5 mM DTT, 2 mM MgCl2, 2 mM ATP), 1 h, 436 000 x g for 120 min at 23°C; bulk critical concentration = x-intercept of the linear fit of pellet against total concentration

For `Nc1ncnc2c1ncn2[C@@H]1O[C@H](COP(=O)(O)OP(=O)(O)OP(=O)(O)O)[C@@H](O)[C@H]1O` [ATP], the “Pi release assay (MESG coupled, A360)” value [1] was “SpeMreB5 hydrolysed ATP and released Pi over time”.

“SpeMreB5 D162S (from UniProt A0A0H3XIQ3 1-350) (natural protein)” gave a critical concentration (CC) [2] of 0.07 µM.

“SpeMreB5 T160A (from UniProt A0A0H3XIQ3 1-350) (natural protein)” was tested, and the critical concentration (CC) [3] was 0.15 µM.

With “SpeMreB5 T160K (from UniProt A0A0H3XIQ3 1-350) (natural protein)” the critical concentration (CC) [4] was 0 µM.

Work on “Spiroplasma eriocheiris MreB3 wild-type (from UniProt A0A0H3XJK5 1-352) (natural protein)” yielded a critical concentration (CC) [5] of 2.8 µM.

With “Spiroplasma eriocheiris MreB5 wild-type (from UniProt A0A0H3XIQ3 1-350) (natural protein)” the critical concentration (CC) [6] was 0.39 µM, the critical concentration (CC) [7] was 0.29 µM and the critical concentration (CC) [8] was 0.14 µM.

B1: SpeMreB3 S176D (natural protein)
chain: MTITDVLKNTFNISPKPPRKFIAIDLGTTNSIAYIGGRGIIYNEASVMAYETGTKKLVALGEDARKLIGKTHDKIEIYTPLRNGAITDLRIAEEFIQHIGNRAKVQDVWKGSIVLIACPKSVTELERRAMVEMCKHLGADLVQVEEDTLMAALGAGANIFAPKGTFILDIGGGKTDAGIISAGGIVVSKSIKIAGNYIDEEILKYIRAKHTISIGVVTAEQIKKQIGSLYKGKETKKMVIFGRDVVTGMPKETEILDSEIRKLLISIFSSITQLVTDILESTPAELAGDAVMNGLLVSGGCAQISGLKEFLESYFQIPVKIAKNPQTAVIDGCIAYEKEIRDRLIEENKKNK
B1: binds [9].

B2: SpeMreB3 K174T/S176D (natural protein)
chain: B1 chain with K174T
For B2, the “critical concentration (CC)” value [10] was 2.15 µM.

B3: SpeMreB3 D147E (natural protein)
chain: B1 chain with D147E, D176S
B3 was tested, and the “critical concentration (CC)” value [10] was 1.26 µM.

B4: SpeMreB3 K174T (natural protein)
chain: B1 chain with K174T, D176S
B4 was tested, and the “critical concentration (CC)” value [10] was 2.2 µM.
